This is an account of results in patent publication US6921496.

This test deals with IgG (immobilised on resin in a column). As to the kind of experiment: IgG-functionalised resin column, about 15 min reaction, buffer wash; effluent monitored for nanoparticle luminescence.

“protein G-zipper fusion protein (IgG binding b2 sub-domain of streptococcal protein G, linker, basic leucine zipper tail, hexahistidine), electrostatically attached to CdSe-ZnS dihydrolipoic acid nanoparticles (from UniProt P19909 373-427)” came in with a percent of ionic bioconjugates retained by the column of 95 to 98%.
